According to US20070036810A1, “Cyclic amp response element activator proteins and uses related thereto” (priority 2003, published 2007):

Key:
[1] = target: T1, CREB-GAL4 fusion molecule (UniProt P04386+P16220); assay: In vivo kinase assay, CREB-GAL4 fusion in HLR cells; type: cell-based; details: 40 hours after transfection
T1 construct: host or cells: HLR cell line (5x GAL4 element-luciferase reporter)
Procedure: For in vivo kinase assay, activation domains of CREB or ATF2 transcription factors fused with the yeast GAL4 DNA binding domain (1-147 Amino Acids) constructs are used (Stratagene, PathDetect In Vivo Signal Transduction Pathway trans-reporting Systems). The HLR cell line that contains a 5× GAL4 DNA binding element and TATA box driving luciferase reporter is used per manufacturer's protocol (Stratagene). 10^4 HLR cells are split into each well of 96 well tissue culture plates. After 16 hours, cells are transfected with 100 ng of Creb-GAL4 or ATF2-GAL4 fusion constructs, 30 ng of Renilla luciferase control plasmid together with 100 ng of pCMVSPORT6, pCMVSPORT-CREAP1, pFC-PKA or pFC-MEKK (Stratagene) activator plasmids respectively. Transfection is done with Fugene6 reagent (Roche Molecular Biochemicals, Basel, Switzerland) according to the manufacturers manual. Forty hours after transfection, a Dual-Glo Luciferase assay (Promega) is conducted using the manufacturer's protocol.
As CREAP1 strongly activates CRE promoter transcription, we next investigated whether CREAP1 works through the CREB pathway. […]

[2] = system: CRE-like element of IL-8 promoter (pCREL-Luc); assay: pCREL-Luc reporter (concatamerized CRE-like site) assay; type: cell-based; details: minimal promoter carrying concatamerized CRE-like site; data not shown
Text: The pIL-8Luc reporter was constructed by insertion of the −1491 to +43 region of the human IL-8 gene into pGL3Basic vector (Promega, Inc). PCR was used to generate a wild type minimal IL-8 promoter as well as point mutants. Mutations in AP-1, C/EBP, NF-κB were as described by Wu et al. (Wu et al. J. Biol. Chem., 272:2396-2403 (1997)). The sequence of a putative CRE-like site TGACATAA was mutated to TCGATCAA. Promoter constructs carrying 6 concatamerised copies of CRE-like response element (pCREL-Luc) or 5 copies of CRE-like element TGACACAA found in human PEPCK and CAPL promoters (pCREL2-Luc) were prepared by ligating PCR amplified sequences into pTAL-Luc (BD Biosciences). All techniques were performed using conventional methods.
In order to determine if the “CRE-like element” was directly responsive to CREAP1 or MAP3K11, the ability of both genes to activate a minimal promoter carrying concatamerized CRE-like site (pCREL-Luc) was examined. In addition, we studied the effect of PMA known inducer of AP-1.

Interleukin-8 promoter = assay: IL-8 promoter luciferase reporter co-transfection assay with the CREAP gene family; type: cell-based, human; details: cotransfection, relative to empty pCMV-SPORT6 vector
Text: The entire amino acid sequence for CREAP1 was used in a BLASTP search of a public NCBI database. Initially two public domain cDNAs (XM—117201 and FLJ00364) were identified that have significant homology to the CREAP1 coding region. The nucleotide sequence of XM—117201 was used in a BLASTN search (Altschul S. F. et al., Nucleic Acids Res. 25:3389-3402 (1997)) of a proprietary cDNA library EST database and 4 clones were identified that represent XM—117201 public sequence. All 4 clones were functionally tested upon co-transfection with the CRE-Luc and IL-8p-Luc reporters initially found to be induced by CREAP using methods similar to those disclosed above. Briefly, trypsinized HeLa cells are resuspended in complete growth media at 6×10^4 cells/ml and distributed into white 96-well plates (Costar) in the volume of 100 μl per well. Cells are left overnight in a tissue culture incubator at 37° C. and 5% CO2. pGL3B-IL-8p-Luc reporter plasmid or CRE-Luc reporter (BD Biosciences) as well as tested cDNAs are resuspended in OptiMEM I low serum media (GIBCO BRL) at 25 ng/ml. The reporter plasmids and cDNAs are then distributed into 96-well clean PCR plates (ABGene) at 4 μl/well and 3 μl/well respectively. […]
The activity of firefly and Renilla luciferase is measured using the DualGlo Luciferase Assay System (Promega) following the protocol supplied by the manufacturer. Briefly, 115 μl of freshly reconstituted luciferase reagent is added to each well of the 96-well tissue culture plates with a Multidrop 384 and, after 15 minutes incubation, luminescence is read on a LUMINOSKAN Ascent Luminometer (Thermo Labsystems) with a 400 msec integration time. Subsequently, 115 μl of Stop-and-Glo reagent is added to each well of the 96-well tissue culture and, after 15 minutes incubation, luminescence is read on a LUMINOSKAN Ascent Luminometer with a 200 msec integration time. The activity of each tested cDNA is measured as a ratio of the corresponding firefly and Renilla luciferase activities. […]

T1 sequence (P04386+P16220 fused): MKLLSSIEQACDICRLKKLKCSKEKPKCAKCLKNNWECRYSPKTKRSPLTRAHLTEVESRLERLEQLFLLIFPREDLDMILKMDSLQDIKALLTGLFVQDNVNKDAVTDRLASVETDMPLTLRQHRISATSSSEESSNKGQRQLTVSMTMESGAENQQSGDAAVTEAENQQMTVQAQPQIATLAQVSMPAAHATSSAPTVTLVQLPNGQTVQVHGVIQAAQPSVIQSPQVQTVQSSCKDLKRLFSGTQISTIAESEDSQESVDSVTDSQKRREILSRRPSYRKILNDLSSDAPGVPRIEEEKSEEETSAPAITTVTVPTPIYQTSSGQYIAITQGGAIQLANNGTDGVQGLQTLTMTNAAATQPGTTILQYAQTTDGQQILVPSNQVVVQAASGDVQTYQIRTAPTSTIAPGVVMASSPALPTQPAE

B1: CREAP1: human CRE activating protein 1, 650 amino acids, SEQ ID NO 2; expressed from pCMVSPORT-CREAP1 (protein)
chain: MATSNNPRKFSEKIALHNQKQAEETAAFEEVMKDLSLTRAARLQLQKSQYLQLGPSRGQYYGGSLPNVNQIGSGTMDLPFQPSGFLGEALAAAPVSLTPFQSSGLDTSRTTRHHGLVDRVYRERGRLGSPHRRPLSVDKHGRQADSCPYGTMYLSPPADTSWRRTNSDSALHQSTMTPTQPESFSSGSQDVHQKRVLLLTVPGMEETTSEADKNLSKQAWDTKKTGSRPKSCEVPGINIFPSADQENTTALIPATHNTGGSLPDLTNIHFPSPLPTPLDPEEPTFPALSSSSSTGNLAANLTHLGIGGAGQGMSTPGSSPQHRPAGVSPLSLSTEARRQQASPTLSPLSPITQAVAMDALSLEQQLPYAFFTQAGSQQPPPQPQPPPPPPPASQQPPPPPPPQAPVRLPPGGPLLPSASLTRGPQPPPLAVTVPSSLPQSPPENPGQPSMGIDIASAPALQQYRTSAGSPANQSPTSPVSNQGFSPGSSPQHTSTLGSVFGDAYYEQQMAARQANALSHQLEQFNMMENAISSSSLYSPGSTLNYSQAAMMGLTGSHGSLPDSQQLGYASHSGIPNIILTVTGESPPSLSKELTSSLAGVGDVSFDSDSQFPLDELKIDPLTLDGLHMLNDPDMVLADPATEDTFRMDRL
modifications: human
In the case of B1, the “transactivation of the CREB-GAL4 fusion molecule on the GAL4 promoter” value [1] is reported as “strongly stimulates”, the “activation of pCREL-Luc” value [2] is reported as “strongly activated” and the “IL-8: level of expression of luciferase relative to empty vector” value (Interleukin-8 promoter) is reported as 175.8571.
